Results on 1 substance are retold here after patent publication US20150238626A1, “RECEPTOR LIGAND LINKED CYTOTOXIC MOLECULES” (ONTOCHEM GMBH, priority 2012, published 2015).

The target of test [1] is human Y2 receptor C-terminally fused to EYFP (human) (UniProt P49146).
The target in test [2] is human Y1 receptor C-terminally fused to EYFP (human) (UniProt P25929).
For test [3], the target named is human Y2 receptor C-terminally fused to EYFP (human) (UniProt P49146). This is another data set of the same source.

As to NPY (ligand), in test [1], the EC50, functional IP3 second messenger assay was 500 pM. In addition, the EC50, functional CRE reporter gene assay in test [2] stood at 770 pM; in test [3], 870 pM.
